This passage reports Kd results from patent US20190134143A1.

What is called Kd is the constant that tells how readily two partners part at equilibrium. A higher Kd goes with weaker binding.

The target in this assay is PDZ1/2 domain. The assay is described as follows: SPR, Biacore 3000; PDZ1/2 amine-coupled to the chip, peptide as analyte, 1:1 binding model.
Sequence of PDZ1/2 domain (P78352 65-246): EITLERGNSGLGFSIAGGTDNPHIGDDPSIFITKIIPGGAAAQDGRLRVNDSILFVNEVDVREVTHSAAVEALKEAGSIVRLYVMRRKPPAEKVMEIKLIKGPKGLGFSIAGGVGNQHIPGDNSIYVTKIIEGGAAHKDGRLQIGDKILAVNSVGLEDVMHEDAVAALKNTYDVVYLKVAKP

For YGRKKRRQRRRKLSSIESDV (modifications not checked) [control chimeric peptide NA-1], the dissociation constant (Kd) worked out at 75.3 nM.
